{"source": "paper PMC12759081", "about": "“S-phase PARylation of microprotein RSMC enhances the function of Sororin in sister chromatid cohesion” (The EMBO Journal, 2025)", "conditions_in_all_cases": "both partners purified", "key": {"[1]": {"target": "T1, 6×His-3×Flag-PDS5B, Cy5-labelled (UniProt Q9NTI5 1-1447, Cy5 label)", "T1 construct": "PDS5B, cDNA in pFastBac1; primers run from the start codon to the stop codon; also called His-Flag-PDS5B; Cy5-labeled PDS5B; source: SF9 cells (baculovirus), purified (Ni2+ Sepharose); not shown: His6, N-terminal, kept; 3×Flag, N-terminal, kept", "T1 sequence (looked up)": "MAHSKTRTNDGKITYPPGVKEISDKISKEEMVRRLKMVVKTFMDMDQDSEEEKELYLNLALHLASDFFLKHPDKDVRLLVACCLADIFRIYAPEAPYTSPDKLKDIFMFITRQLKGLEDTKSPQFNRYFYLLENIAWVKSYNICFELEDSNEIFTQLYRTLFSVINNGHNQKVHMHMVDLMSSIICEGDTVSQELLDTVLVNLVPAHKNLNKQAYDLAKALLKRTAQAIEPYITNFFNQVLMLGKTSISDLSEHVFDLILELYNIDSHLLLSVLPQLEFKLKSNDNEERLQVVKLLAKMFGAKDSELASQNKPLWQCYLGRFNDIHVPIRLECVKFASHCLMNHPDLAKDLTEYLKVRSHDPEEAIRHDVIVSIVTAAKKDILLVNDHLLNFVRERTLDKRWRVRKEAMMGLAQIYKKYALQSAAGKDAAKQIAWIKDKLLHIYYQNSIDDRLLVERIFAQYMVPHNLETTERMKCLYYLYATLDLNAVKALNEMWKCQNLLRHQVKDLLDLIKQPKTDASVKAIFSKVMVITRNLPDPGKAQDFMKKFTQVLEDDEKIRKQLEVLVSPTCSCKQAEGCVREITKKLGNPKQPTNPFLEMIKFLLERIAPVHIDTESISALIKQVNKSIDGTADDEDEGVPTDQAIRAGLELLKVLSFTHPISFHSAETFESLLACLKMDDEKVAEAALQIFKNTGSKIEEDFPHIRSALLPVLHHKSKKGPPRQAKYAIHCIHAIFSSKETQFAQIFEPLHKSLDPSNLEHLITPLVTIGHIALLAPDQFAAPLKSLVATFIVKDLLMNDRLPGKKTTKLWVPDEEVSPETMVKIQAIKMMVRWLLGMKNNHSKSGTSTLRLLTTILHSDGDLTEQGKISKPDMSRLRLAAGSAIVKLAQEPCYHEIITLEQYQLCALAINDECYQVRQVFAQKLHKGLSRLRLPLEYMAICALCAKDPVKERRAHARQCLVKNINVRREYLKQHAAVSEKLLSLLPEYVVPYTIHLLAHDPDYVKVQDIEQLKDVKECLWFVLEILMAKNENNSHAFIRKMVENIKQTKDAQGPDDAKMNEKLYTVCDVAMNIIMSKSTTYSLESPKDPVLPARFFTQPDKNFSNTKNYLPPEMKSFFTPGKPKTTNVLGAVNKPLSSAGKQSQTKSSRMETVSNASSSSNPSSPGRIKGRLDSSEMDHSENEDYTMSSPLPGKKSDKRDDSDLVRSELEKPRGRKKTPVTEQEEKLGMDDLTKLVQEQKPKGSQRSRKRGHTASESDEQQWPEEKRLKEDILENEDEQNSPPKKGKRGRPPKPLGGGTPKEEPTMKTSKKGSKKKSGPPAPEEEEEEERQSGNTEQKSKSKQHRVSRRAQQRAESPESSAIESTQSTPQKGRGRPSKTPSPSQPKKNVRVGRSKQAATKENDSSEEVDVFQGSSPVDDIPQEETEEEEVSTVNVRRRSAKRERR", "assay": "MST; competitive: 34 nM Cy5-PDS5B and Wapl dilutions combined 10 min at RT, then Sororin and RSMC added (17 nM each, 1:1 molar ratio); 25 °C, 50 mM Tris pH 7.4, 150 mM NaCl, 10% glycerol, 0.05% Tween-20"}, "[2]": {"target": "T1, 6×His-3×Flag-PDS5B, Cy5-labelled", "assay": "MST; competitive: 34 nM Cy5-PDS5B and Wapl dilutions combined 10 min at RT, then 17 nM Sororin added; 25 °C, 50 mM Tris pH 7.4, 150 mM NaCl, 10% glycerol, 0.05% Tween-20"}, "[3]": {"target": "T1, 6×His-3×Flag-PDS5B, Cy5-labelled", "assay": "MST; Cy5-labelled PDS5B at 34 nM, partner in twofold dilutions; 25 °C, 50 mM Tris pH 7.4, 150 mM NaCl, 10% glycerol, 0.05% Tween-20; Monolith NT.115"}}}
{"binder": "Wapl (natural protein, UniProt Q7Z5K2 1-1190, looked up, Wapl, cohesin-releasing factor; primers run from the start codon to the stop codon) MTSRFGKTYSRKGGNGSSKFDEVFSNKRTTLSTKWGETTFMAKLGQKRPNFKPDIQEIPKKPKVEEESTGDPFGFDSDDESLPVSSKNLAQVKCSSYSESSEAAQLEEVTSVLEANSKISHVVVEDTVVSDKCFPLEDTLLGKEKSTNRIVEDDASISSCNKLITSDKVENFHEEHEKNSHHIHKNADDSTKKPNAETTVASEIKETNDTWNSQFGKRPESPSEISPIKGSVRTGLFEWDNDFEDIRSEDCILSLDSDPLLEMKDDDFKNRLENLNEAIEEDIVQSVLRPTNCRTYCRANKTKSSQGASNFDKLMDGTSQALAKANSESSKDGLNQAKKGGVSCGTSFRGTVGRTRDYTVLHPSCLSVCNVTIQDTMERSMDEFTASTPADLGEAGRLRKKADIATSKTTTRFRPSNTKSKKDVKLEFFGFEDHETGGDEGGSGSSNYKIKYFGFDDLSESEDDEDDDCQVERKTSKKRTKTAPSPSLQPPPESNDNSQDSQSGTNNAENLDFTEDLPGVPESVKKPINKQGDKSKENTRKIFSGPKRSPTKAVYNARHWNHPDSEELPGPPVVKPQSVTVRLSSKEPNQKDDGVFKAPAPPSKVIKTVTIPTQPYQDIVTALKCRREDKELYTVVQHVKHFNDVVEFGENQEFTDDIEYLLSGLKSTQPLNTRCLSVISLATKCAMPSFRMHLRAHGMVAMVFKTLDDSQHHQNLSLCTAALMYILSRDRLNMDLDRASLDLMIRLLELEQDASSAKLLNEKDMNKIKEKIRRLCETVHNKHLDLENITTGHLAMETLLSLTSKRAGDWFKEELRLLGGLDHIVDKVKECVDHLSRDEDEEKLVASLWGAERCLRVLESVTVHNPENQSYLIAYKDSQLIVSSAKALQHCEELIQQYNRAEDSICLADSKPLPHQNVTNHVGKAVEDCMRAIIGVLLNLTNDNEWGSTKTGEQDGLIGTALNCVLQVPKYLPQEQRFDIRVLGLGLLINLVEYSARNRHCLVNMETSCSFDSSICSGEGDDSLRIGGQVHAVQALVQLFLERERAAQLAESKTDELIKDAPTTQHDKSGEWQETSGEIQWVSTEKTDGTEEKHKKEEEDEELDLNKALQHAGKHMEDCIVASYTALLLGCLCQESPINVTTVREYLPEGDFSIMTEMLKKFLSFMNLTCAVGTTGQKSISRVIEYLEHC", "values": [{"measurement": "Kd of Wapl-PDS5B with Sororin and RSMC added (1:1)", "setting": "[1]", "value": 50.1, "unit": "µM"}, {"measurement": "Kd of Wapl-PDS5B with Sororin added", "setting": "[2]", "value": 25.3, "unit": "µM"}, {"measurement": "Kd", "setting": "[3]", "value": "~4.7", "unit": "µM"}]}
